Patent US20250258165A1 (OSAKA UNIVERSITY, published 2025)

Target: T1, p300 (mouse, UniProt B2RWS6 2-2412)
T1 construct: whole, on cells; Endogenous protein inside fixed, permeabilised LPS-stimulated mouse spleen B cells; It was detected through a DNA barcode-labeled antibody (clone RW128)
Assay: joining PCR of DNA barcode-labeled antibodies in hydrogel with NGS; LPS-stimulated mouse spleen B cells
Experimental: B cells collected from mouse spleen were suspended in serum-free medium. The cells were seeded on each well of fluororesin-coated glass slides (super hydrophobic printed glass slides, 10 wells, 6 mm diameter, Matsunami Glass Ind., Ltd., Cat. No. TF1006, see FIG. 6) with an adjusted density of 5000 cells/30 μL per circle. The cells were cultured in 5% CO₂ at 37° C. for 30 minutes, and the culture supernatant was removed. […] The cells were cultured in 5% CO₂ at 37° C. for 24 hours. IL-4 was used as stimulation for B-cell activation.
The joining PCR of the antibody barcodes that come in close proximity was performed using Mastercycler nexus flat (trade-name) (Eppendorf) PCR cycler. […] The PCR reaction was performed through a program consisting of six steps: step 1: 95° C., 2 minutes; step 2: (95° C., 30 seconds and 68° C., 1 minute)×10 cycles; step 3: (95° C., 30 seconds, 55° C., 30 seconds and 68° C., 1 minute)×2 cycles; step 4: (95° C., 30 seconds, 60° C., 30 seconds and 68° C., 1 minute)×16 cycles; step 5: 68° C., 1 minute; and step 6: 4° C., infinity. The samples after completion of the PCR reaction were stored at −20° C.

T1 sequence (B2RWS6 2-2412): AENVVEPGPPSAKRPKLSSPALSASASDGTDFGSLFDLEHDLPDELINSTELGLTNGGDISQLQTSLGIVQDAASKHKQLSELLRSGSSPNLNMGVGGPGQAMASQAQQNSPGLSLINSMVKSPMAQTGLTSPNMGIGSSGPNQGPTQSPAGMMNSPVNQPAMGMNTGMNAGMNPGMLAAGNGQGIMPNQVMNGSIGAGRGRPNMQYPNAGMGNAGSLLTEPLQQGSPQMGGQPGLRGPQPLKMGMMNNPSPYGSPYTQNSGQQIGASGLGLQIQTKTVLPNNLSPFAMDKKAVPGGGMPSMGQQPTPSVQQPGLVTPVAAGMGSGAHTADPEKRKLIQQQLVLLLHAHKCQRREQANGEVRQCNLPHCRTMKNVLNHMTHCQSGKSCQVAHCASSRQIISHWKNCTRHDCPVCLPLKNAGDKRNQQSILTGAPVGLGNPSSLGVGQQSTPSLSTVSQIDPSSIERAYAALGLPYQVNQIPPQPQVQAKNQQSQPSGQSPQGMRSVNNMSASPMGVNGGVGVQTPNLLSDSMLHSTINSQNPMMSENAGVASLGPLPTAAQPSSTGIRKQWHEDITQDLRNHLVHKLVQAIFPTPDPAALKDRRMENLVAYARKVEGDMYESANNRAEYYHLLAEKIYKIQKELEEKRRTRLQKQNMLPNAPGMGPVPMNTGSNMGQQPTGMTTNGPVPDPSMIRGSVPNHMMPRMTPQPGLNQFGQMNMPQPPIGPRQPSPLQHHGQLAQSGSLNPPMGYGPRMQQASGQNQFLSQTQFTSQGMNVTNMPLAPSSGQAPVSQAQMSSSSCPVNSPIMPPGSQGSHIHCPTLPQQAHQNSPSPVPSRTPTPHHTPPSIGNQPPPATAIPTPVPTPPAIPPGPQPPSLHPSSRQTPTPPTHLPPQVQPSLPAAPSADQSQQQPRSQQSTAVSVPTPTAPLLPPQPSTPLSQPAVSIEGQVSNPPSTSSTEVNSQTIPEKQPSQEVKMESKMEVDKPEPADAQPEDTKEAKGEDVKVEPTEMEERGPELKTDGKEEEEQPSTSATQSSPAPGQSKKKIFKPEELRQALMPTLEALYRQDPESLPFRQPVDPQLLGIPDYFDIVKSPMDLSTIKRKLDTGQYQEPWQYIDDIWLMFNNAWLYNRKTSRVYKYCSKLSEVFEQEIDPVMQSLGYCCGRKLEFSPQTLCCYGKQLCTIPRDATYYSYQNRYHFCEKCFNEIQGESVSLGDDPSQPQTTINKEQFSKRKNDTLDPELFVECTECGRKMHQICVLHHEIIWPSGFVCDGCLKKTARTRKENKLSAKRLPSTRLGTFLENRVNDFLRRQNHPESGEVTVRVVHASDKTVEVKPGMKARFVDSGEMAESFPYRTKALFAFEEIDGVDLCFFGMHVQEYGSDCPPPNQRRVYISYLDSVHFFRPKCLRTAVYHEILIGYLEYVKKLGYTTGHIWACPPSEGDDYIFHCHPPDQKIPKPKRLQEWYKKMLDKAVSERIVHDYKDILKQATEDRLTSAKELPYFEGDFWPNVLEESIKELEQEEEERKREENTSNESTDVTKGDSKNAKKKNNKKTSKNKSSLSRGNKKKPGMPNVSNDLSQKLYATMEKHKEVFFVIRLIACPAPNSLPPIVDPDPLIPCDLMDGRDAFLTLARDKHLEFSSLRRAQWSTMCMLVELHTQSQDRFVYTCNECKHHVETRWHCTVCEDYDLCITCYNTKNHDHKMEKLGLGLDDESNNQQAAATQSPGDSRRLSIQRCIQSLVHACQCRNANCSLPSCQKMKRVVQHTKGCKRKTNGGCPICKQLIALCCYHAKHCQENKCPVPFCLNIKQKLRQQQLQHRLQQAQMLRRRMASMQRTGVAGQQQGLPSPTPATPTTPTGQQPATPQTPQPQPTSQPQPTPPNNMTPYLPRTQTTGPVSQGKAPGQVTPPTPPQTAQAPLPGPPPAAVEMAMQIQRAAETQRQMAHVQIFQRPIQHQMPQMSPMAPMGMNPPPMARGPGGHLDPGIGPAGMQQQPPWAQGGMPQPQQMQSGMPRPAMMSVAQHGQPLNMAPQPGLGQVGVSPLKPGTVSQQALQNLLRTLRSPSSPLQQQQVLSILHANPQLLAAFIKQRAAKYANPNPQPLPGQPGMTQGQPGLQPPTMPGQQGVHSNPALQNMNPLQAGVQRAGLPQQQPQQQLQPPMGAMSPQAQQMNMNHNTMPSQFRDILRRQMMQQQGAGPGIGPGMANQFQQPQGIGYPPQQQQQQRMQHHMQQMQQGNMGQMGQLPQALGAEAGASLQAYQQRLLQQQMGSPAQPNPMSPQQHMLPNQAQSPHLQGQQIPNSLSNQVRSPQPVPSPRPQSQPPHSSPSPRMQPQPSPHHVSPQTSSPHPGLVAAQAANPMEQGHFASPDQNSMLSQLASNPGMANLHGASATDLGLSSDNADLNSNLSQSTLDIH

B1: Lamin B1 (other, mouse, UniProt P14733 2-585, looked up)
chain: ATATPVQQQRAGSRASAPATPLSPTRLSRLQEKEELRELNDRLAVYIDKVRSLETENSALQLQVTEREEVRGRELTGLKALYETELADARRALDDTARERAKLQIELGKFKAEHDQLLLNYAKKESDLSGAQIKLREYEAALNSKDAALATALGDKKSLEGDLEDLKDQIAQLEASLSAAKKQLADETLLKVDLENRCQSLTEDLEFRKNMYEEEINETRRKHETRLVEVDSGRQIEYEYKLAQALHEMREQHDAQVRLYKEELEQTYHAKLENARLSSEMNTSTVNSAREELMESRMRIESLSSQLSNLQKESRACLERIQELEDMLAKERDNSRRMLSDREREMAEIRDQMQQQLSDYEQLLDVKLALDMEISAYRKLLEGEEERLKLSPSPSSRVTVSRASSSRSVRTTRGKRKRVDVEESEASSSVSISHSASATGNVCIEEIDVDGKFIRLKNTSEQDQPMGGWEMIRKIGDTSVSYKYTSRYVLKAGQTVTVWAANAGVTASPPTDLIWKNQNSWGTGEDVKVILKNSQGEEVAQRSTVFKTTIPEEEEEEEEEPIGVAVEEERFHQQGAPRASNKSC
notes: whole, on cells; Endogenous protein inside fixed, permeabilised LPS-stimulated mouse spleen B cells; It was detected through a DNA barcode-labeled antibody (clone L-5)
binding result: binds
